{"source": "paper PMC9307851", "target": "DNMT3B MTase domain WT (human, UniProt Q9UBC3 569-853)", "assay": "ITC; 5 C; ITC: 20 mM Tris-HCl pH 7.2, 200 mM NaCl, 5% glycerol, 2 mM b-mercaptoethanol, 5 C; EMSA: 50 mM Tris-HCl pH 8.0, 25% glycerol, 8% glucose, 2 mM DTT, 0.1 mg/mL BSA, 30 min, gel in 0.5x TBE at 4 C", "settings": "protein: recombinant; tags: His6-MBP removed by TEV; (only upper strand given)", "data": [{"binder": "24-mer DNA duplex (GAC)8 (dsDNA) DNA 1: GACGACGACGACGACGACGACGAC DNA 2: GTCGTCGTCGTCGTCGTCGTCGTC", "values": [{"measurement": "Kd", "result": "4 ± 0.1", "unit": "µM"}]}]}
